Assay [1] deals with T1, human PVRIG (Poliovirus Receptor Related Immunoglobulin Domain Containing Protein), full length on cells (human, UniProt Q6DKI7 41-326).
T1 construct: whole, on cells; Over-expressed on HEK293 (some pools flag-tagged) or endogenous on Jurkat, CA46, T cells, NK cells, TILs; also called hPVRIG; HEK hPVRIG
T1 sequence (looked up): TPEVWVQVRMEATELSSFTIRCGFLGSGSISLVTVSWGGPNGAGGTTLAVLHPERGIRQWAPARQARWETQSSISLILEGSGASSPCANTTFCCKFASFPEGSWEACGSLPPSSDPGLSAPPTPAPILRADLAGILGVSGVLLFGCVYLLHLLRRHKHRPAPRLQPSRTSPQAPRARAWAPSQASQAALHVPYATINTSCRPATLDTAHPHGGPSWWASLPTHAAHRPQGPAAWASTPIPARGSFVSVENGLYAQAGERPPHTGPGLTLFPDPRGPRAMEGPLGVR
Description: FACS dose titration on PVRIG over-expressing HEK293 cells. The protocol:
FACS screening of the reformatted antibodies was done similarly to the PPE based screen described herein, except that a dose-dependent titration of the purified antibodies was performed. The human PVRIG over-expressing HEK293 cells, or the un-transfected HEK293 cells, were incubated with varying concentrations (0-10 μg/ml) of the anti PVRIG antibodies or isotype controls in FACS buffer at 4° C. for 60 mins. […] Cells were washed twice and re-suspended in a final volume of 80 μl of FACS buffer and Propidium Iodide (Biolegend cat #421301) diluted 1:1000. Samples were analyzed using an Intellicyt HTFC screening system (Intellicyt). Data was analyzed using FlowJo (DeNovo), exported to Excel (Microsoft) and plotted in GraphPad Prism (GraphPad Software, Inc.).
All unique ELISA and FACS binders were reformatted for expression as human IgG1 molecules in Expi293 cells. […] These reformatted antibodies were tested for retained binding to PVRIG over-expressing HEK293 cells alongside an irrelevant human IgG1 isotype control. All antibodies were also tested against un-transfected HEK293 cells.

The target in assay [2] is T1, human PVRIG (Poliovirus Receptor …). Description: FACS on CD4+ T cells, days 3-6 of activation.
Assay [3] has the same target. Description: FACS on resting human CD4+ T cells.
The target is the same in assay [4]. Description: flow cytometry, Alexa 647 IgG titrated on HEK 293 cells expressing human PVRIG, 1:1 equilibrium fit. (Flow cytometry measures light scatter and fluorescence of single cells or particles in a stream.)
The target of assay [5] is T2, L95R/T97I cyno PVRIG ECD with C-terminal 6xHis tag (cynomolgus monkey).
T2 chain: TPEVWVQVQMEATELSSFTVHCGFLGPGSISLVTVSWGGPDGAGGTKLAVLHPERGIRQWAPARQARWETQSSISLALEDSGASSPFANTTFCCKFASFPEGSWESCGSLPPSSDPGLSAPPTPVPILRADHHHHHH
Description: ELISA on coated His-tagged PVRIG variant.

For assay [6], the target named is T3, human PVRL2-His (Catalog #2229-N2-050/CF, R&D Systems) (human, UniProt Q92692 32-360).
T3 construct: Bought (R&D Systems); also called His-tagged PVRL2 recombinant protein; PVRL2 (CD112)
T3 sequence (looked up): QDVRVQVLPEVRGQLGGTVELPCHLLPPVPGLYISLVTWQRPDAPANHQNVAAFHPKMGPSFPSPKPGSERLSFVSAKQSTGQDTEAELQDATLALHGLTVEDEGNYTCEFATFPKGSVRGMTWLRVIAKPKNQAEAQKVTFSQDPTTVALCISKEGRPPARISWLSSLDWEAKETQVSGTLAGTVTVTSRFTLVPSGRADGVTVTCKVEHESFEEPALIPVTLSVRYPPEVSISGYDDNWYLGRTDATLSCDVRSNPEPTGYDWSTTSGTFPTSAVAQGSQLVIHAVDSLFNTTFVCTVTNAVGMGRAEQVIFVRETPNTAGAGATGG
Description: SPR ProteOn, analyte over Fc-captured ligand; complex kinetics.

Where a chain is given by its changes, count along the chain named.

B1: CPA.7.050 human IgG1 (antibody, V domains shown)
VH: EVQLVQSGAEVKKPGSSVKVSCKASGGTFSSYAISWVRQAPGQGLEWMGGIIPIFGTANYAQKFQGRVTITADKSTSTAYMELSSLRSEDTAVYYCARGPWYYDSSGYSSYAYYMDVWGQGTTVTVSS
VL: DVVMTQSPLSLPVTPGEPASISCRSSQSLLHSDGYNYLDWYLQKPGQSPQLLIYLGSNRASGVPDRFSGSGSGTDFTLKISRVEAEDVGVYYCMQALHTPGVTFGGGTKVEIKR
notes: also called CPA.7.50
Turning to B1, the dissociation constant (Kd) (as a rule, a measure of binding affinity in units of concentration) in assay [1] amounted to 68.3 nM.

B2: Anti-human PVRIG - CPA.7.021, Human IgG2, conjugated to AF-647 (antibody, V domains shown)
VH: EVQLVESGGGVVKPGGSLRLSCAASGFTFGTSSMNWVRQAPGKGLEWVAVISFDGTEIHYADSVKGRFTISRDNSKSTVFLQMNSLRPDDTALYYCAKGSGNIYFYSGMDVWGQGTTVTVSS
VL: DIQMTQSPSTLSASVGDRVTITCRAGQSISGWLAWFQQKPGKAPNLLIYETSTLESGVPSRFSGSGSGTEYTLTISSLQPDDFATYYCQQYYSYPLTFGQGTKVEIK
modifications: Alexa Fluor 647 dye conjugated to the antibody (site not stated).
notes: also called Anti PVRIG-CPA.7.021 ab; CPA.7.021 IgG2 A647
Take B2: the entries for the “fold staining over isotype control” value in assay [2] and in assay [3] were 2 to 3 fold and 3 fold, respectively.

B3: CPA.7.021 IgG conjugated with Alexa 647 (antibody, V domains shown)
VH: B2 VH
VL: B2 VL
modifications: Alexa Fluor 647 dye conjugated to the antibody (site not stated).
notes: also called Alexa647 labelled CPA.7.021 IgG; conjugated CPA.7.021
On to B3, for which, in assay [4], binding was put at a Kd of 2.5 nM.

B4: CPA.7.021 human IgG1 (antibody, V domains shown)
VH: B2 VH
VL: DIQMTQSPSTLSASVGDRVTITCRAGQSISGWLAWFQQKPGKAPNLLIYETSTLESGVPSRFSGSGSGTEYTLTISSLQPDDFATYYCQQYYSYPLTFGQGTKVEIKR
Molecule B4 registered a Kd in assay [1] of 11.2 nM. The binding result in assay [5] is given as “binds”.

B5: human DNAM-1 fusion protein (human fc, R&D Systems) (Fc fusion, UniProt Q15762 19-247, looked up, not shown: a dimerising Fc or GST)
chain: EEVLWHTSVPFAENMSLECVYPSMGILTQVEWFKIGTQQDSIAIFSPTHGMVIRKPYAERVYFLNSTMASNNMTLFFRNASEDDVGYYSCSLYTYPQGTWQKVIQVVQSDSFEAAVPSNSHIVSEPGKNVTLTCQPQMTWPVQAVRWEKIQPRQIDLLTYCNLVHGRNFTSKFPRQIVSNCSHGRWSVIVIPDVTVSDSGLYRCYLQASAGENETFVMRLTVAEGKTDN
notes: Bought
Turning to B5, in assay [6], the binding result is given as “binds”.

B6: CPA.7.036 human IgG1 (antibody, V domains shown)
VH: QVQLVQSGAEVKKPGSSVKVSCKASGGTFSSSAISWVRQAPGQGFEWMGGIIPIYGITDYAQKFQGRVTITTDESTSTAYMELSSLTSEDTAVYYCARDDTARRVRGVPYYYYYAMDVWGQGTTVTVSS
VL: DIVMTQTPLSLPVTPGEPASISCRPSQSLLDSDDGNTYLDWYLQKPGQSPQLLIHTLSYRASGVPDRFSGSGSGTDFTLKISRVEAEDVGVYYCMQRLQFPLTFGGGTKVEIKR
notes: also called CPA.7.36
Molecule B6 gave a Kd in assay [1] of 6 nM.

B7: CPA.7.038 human IgG1 (antibody, V domains shown)
VH: B6 VH
VL: DIQMTQSPSSLSASVGDRVTITCQASRDISDSLSWYQQKPGKAPKLLIFDASNLKTGVSSRFSGSGSGTDFTFTISSLQPEDIATYYCHQYDNLPLTFGGGTKVEIKR
In the case of B7, the Kd in assay [1] was 20.3 nM.

B8: CPA.7.049 human IgG1 (antibody, V domains shown)
VH: B6 VH with V2M
VL: B6 VL with I21M, P25S, Q27R, Y38H, H55Q, T56S, K80E, V91I, L98K, Q99E
Molecule B8 registered a Kd in assay [1] of 19.9 nM.

These data come from patent publication US20200385445A1 (COMPUGEN, published 2020).
